Data set [1] deals with T1, CsBES1.2-MBP (Camellia sinensis (cDNA from cv. …, UniProt UPI0010362774 1-322)).
T1 sequence: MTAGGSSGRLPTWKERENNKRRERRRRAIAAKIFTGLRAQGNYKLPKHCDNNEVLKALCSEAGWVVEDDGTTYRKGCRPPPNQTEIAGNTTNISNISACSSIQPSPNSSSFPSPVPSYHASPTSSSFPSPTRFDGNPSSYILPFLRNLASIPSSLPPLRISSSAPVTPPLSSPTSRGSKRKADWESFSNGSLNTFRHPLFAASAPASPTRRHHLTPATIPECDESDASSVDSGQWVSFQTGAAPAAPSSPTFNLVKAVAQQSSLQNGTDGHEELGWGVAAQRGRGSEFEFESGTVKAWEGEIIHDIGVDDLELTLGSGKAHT
In words: EMSA; weaker than P2 E-box probe per text; Beyotime Chemiluminescent EMSA Kit; 6.5% polyacrylamide gel, 60 V 65 min; binding buffer, salt, pH and temperature not stated. Conditions: protein: recombinant; tags: MBP (pMAL-c5x); label: 5' biotin (probe); blunt. (Mobility shift assays separate free from complexed probe on a gel.)

Data set [2] addresses T1, CsBES1.2-MBP. In words: EMSA; outcompeted by unlabeled probe; stronger than P1 per text; Beyotime Chemiluminescent EMSA Kit; 6.5% polyacrylamide gel, 60 V 65 min; binding buffer, salt, pH and temperature not stated. Conditions: protein: recombinant; tags: MBP (pMAL-c5x); label: 5' biotin (probe); blunt.
In data set [3] the target is T1, CsBES1.2-MBP. In words: competition; unlabeled mutant vs biotin-P2 probe; did not outcompete; Beyotime Chemiluminescent EMSA Kit; 6.5% polyacrylamide gel, 60 V 65 min; binding buffer, salt, pH and temperature not stated. The settings on record: protein: recombinant; tags: MBP (pMAL-c5x); label: unlabeled; blunt.

The source of these data is article PMC11088715, “CsEXL3 regulate mechanical harvest-related droopy leaves under the transcriptional activation of CsBES1.2 in tea plant”.

B1: CsEXL3 promoter P1 (BRRE-box) probe (dsDNA)
DNA 1: GCGAGGCGACGAGGCGGAGG
DNA 2: CCTCCGCCTCGTCGCCTCGC
B1: the binding result in the data set with CsBES1.2-MBP [1] is reported as “binds”.

B2: CsEXL3 promoter P2 (E-box) probe (dsDNA)
DNA 1: TGAATCCCACGTGTGCAGAACT
DNA 2: AGTTCTGCACACGTGGGATTCA
As for B2, the binding result with CsBES1.2-MBP [2] is listed as “binds”.

B3: Mutant CsEXL3 promoter P2 competitor (dsDNA)
DNA 1: TGAATCCAAAAAATGCAGAACT
DNA 2: AGTTCTGCATTTTTTGGATTCA
On to B3, for which the binding result in the data set with CsBES1.2-MBP [3] is listed as “no binding”.
